Where a chain is given by its changes, count along the chain named. Names may count otherwise.
T1: recombinant mouse FcRn (mouse, UniProt Q61559 22-297; P01887 21-119)
T1 sequence 1: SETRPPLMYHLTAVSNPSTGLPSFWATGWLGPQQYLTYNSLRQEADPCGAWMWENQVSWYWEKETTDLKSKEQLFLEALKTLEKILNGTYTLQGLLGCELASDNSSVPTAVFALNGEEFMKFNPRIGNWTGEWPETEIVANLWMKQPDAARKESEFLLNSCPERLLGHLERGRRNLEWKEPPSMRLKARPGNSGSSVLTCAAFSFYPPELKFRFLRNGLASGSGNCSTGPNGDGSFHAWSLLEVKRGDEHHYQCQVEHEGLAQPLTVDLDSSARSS
T1 sequence 2: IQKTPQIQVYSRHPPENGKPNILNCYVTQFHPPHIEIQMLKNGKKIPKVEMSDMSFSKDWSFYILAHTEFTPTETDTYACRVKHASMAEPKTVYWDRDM

B1: mAb2 (antibody)
heavy: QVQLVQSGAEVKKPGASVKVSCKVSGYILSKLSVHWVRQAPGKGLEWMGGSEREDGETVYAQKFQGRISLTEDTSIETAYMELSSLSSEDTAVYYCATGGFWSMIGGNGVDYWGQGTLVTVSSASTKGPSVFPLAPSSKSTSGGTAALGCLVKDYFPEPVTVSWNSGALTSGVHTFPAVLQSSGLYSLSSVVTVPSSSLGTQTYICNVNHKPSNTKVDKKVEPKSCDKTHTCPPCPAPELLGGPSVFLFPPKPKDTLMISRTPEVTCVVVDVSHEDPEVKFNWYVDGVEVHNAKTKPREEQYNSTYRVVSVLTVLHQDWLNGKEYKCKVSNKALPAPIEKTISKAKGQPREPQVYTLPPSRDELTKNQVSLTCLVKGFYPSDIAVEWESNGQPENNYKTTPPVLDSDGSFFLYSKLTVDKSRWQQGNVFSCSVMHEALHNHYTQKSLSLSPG
light: QAVVTQSPSSLPASVGDRVTITCRASQDIRNNLGWYQQKPGKAPERLIYGTSNLQSGVPSRFSGSGSGTEFTLTISSLQPEDFATYYCLQHNSYPPTFGRGTKVEIKRTVAAPSVFIFPPSDEQLKSGTASVVCLLNNFYPREAKVQWKVDNALQSGNSQESVTEQDSKDSTYSLSSTLTLSKADYEKHKVYACEVTHQGLSSPVTKSFNRGEC
notes: also called parent antibody mAb2
B2: mAb8 (antibody)
heavy: QVQLVQSGAEVKKPGASVKVSCKVSGYILSKLSVHWVRQAPGKGLEWMGGSEREDGETVYAQKFQGRISLTEDTSIETAYMELSSLSSEDTAVYYCATGGFWSMIGGNGVDYWGQGTLVTVSSASTKGPSVFPLAPSSKSTSGGTAALGCLVKDYFPEPVTVSWNSGALTSGVHTFPAVLQSSGLYSLSSVVTVPSSSLGTQTYICNVNHKPSNTKVDKKVEPKSCDKTHTCPPCPAPELLGGPSVFLFPPKPKDTLYITREPEVTCVVVDVSHEDPEVKFNWYVDGVEVHNAKTKPREEQYNSTYRVVSVLTVLHQDWLNGKEYKCKVSNKALPAPIEKTISKAKGQPREPQVYTLPPSRDELTKNQVSLTCLVKGFYPSDIAVEWESNGQPENNYKTTPPVLDSDGSFFLYSKLTVDKSRWQQGNVFSCSVMHEALHNHYTQKSLSLSPG
light: B1 light
notes: also called mAb2YTE
B3: mAb11 (antibody)
heavy: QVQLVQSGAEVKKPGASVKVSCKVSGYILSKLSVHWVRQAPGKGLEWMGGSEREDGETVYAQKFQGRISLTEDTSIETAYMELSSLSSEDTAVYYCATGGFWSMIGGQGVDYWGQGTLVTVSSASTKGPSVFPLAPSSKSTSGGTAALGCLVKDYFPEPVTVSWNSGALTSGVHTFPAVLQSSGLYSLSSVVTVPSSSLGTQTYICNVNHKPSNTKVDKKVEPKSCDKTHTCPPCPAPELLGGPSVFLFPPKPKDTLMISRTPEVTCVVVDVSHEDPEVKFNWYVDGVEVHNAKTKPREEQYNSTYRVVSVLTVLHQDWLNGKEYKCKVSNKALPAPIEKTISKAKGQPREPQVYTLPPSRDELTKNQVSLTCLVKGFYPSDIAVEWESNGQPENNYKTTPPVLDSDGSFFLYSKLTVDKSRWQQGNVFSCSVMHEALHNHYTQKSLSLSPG
light: B1 light
notes: also called mAb2N108Q; mAb2 N108Q
B4: mAb3 (antibody)
heavy: not shown
light: QAVVTQPPSVSGAPGQRVTISCTGSSSNIGADYNVHWYQLLPGTAPKLLIYGNTNRPSGVPDRFSGSKSGTSASLAITGLQAEDEADYYCQSYDSSLSASVFGGGTKLTVLGQPKAAPSVTLFPPSSEELQANKATLVCLISDFYPGAVTVAWKADSSPVKAGVETTTPSKQSNNKYAASSYLSLTPEQWKSHRSYSCQVTHEGSTVEKTVAPTECS
notes: also called mAb1A
B5: mAb5 (antibody)
heavy: not shown
light: B4 light
notes: also called mAb1QL
B6: mAb6 (antibody)
heavy: QVQLVQSGAEVKKPGASVKVSCKASGYSFTSYGISWVRQAPGQGLEWMGWISTYKGYTQYAQNFQGRVTITTDTPATTVYMELRSLRSDDTAVYYCARVLSETGYFYYYYYGMDVWGQGTLVTVSSASTKGPSVFPLAPSSKSTSGGTAALGCLVKDYFPEPVTVSWNSGALTSGVHTFPAVLQSSGLYSLSSVVTVPSSSLGTQTYICNVNHKPSNTKVDKKVEPKSCDKTHTCPPCPAPELLGGPSVFLFPPKPKDTLYITREPEVTCVVVDVSHEDPEVKFNWYVDGVEVHNAKTKPREEQYNSTYRVVSVLTVLHQDWLNGKEYKCKVSNKALPAPIEKTISKAKGQPREPQVYTLPPSRDELTKNQVSLTCLVKGFYPSDIAVEWESNGQPENNYKTTPPVLDSDGSFFLYSKLTVDKSRWQQGNVFSCSVMHEALHNHYTQKSLSLSPG
light: B4 light
notes: also called mAb1YTE
B7: mAb4 (antibody)
heavy: B6 heavy with Y261M, T263S, E265T, T316A, E389A, N443A
light: B4 light
notes: also called mAb1AAA
B8: M104A/N108Q (antibody, V domains shown)
VH: QVQLVQSGAEVKKPGASVKVSCKVSGYILSKLSVHWVRQAPGKGLEWMGGSEREDGETVYAQKFQGRISLTEDTSIETAYMELSSLSSEDTAVYYCATGGFWSAIGGQGVDYWGQGTLVTVSS
VL: QAVVTQSPSSLPASVGDRVTITCRASQDIRNNLGWYQQKPGKAPERLIYGTSNLQSGVPSRFSGSGSGTEFTLTISSLQPEDFATYYCLQHNSYPPTFGRGTKVEIKR
notes: also called mAb2 M104A/N108Q; double mutant of mAb2 in CDRH3
B9: mAb10 (antibody, V domains shown)
VH: B8 VH with A104I, Q108N
VL: B8 VL
notes: also called mAb2M104I
B10: M104A/G109A (antibody, V domains shown)
VH: B8 VH with Q108N, G109A
VL: B8 VL
notes: also called mAb2 M104A/G109A; double mutant of mAb2 in CDRH3
B11: mAb2 M104A (antibody, V domains shown)
VH: B8 VH with Q108N
VL: B8 VL
notes: also called variant comprising an alanine at position 8 of its CDRH3
B12: mAb12 (antibody, V domains shown)
VH: B8 VH with A104M, Q108N, G109A
VL: B8 VL
notes: also called mAb2G109A; mAb2 G109A

Each binder was assayed against T2, Recombinant human HPC4-tagged FcγRIII-F158 (human, UniProt P08637 17-208) (assay: SPR (Biacore 3000), HPC4-tagged FcγRIII-F158 captured on anti-HPC4 CM5 chip, antibody injected 2 min, in duplicate; concentration (900, 300 or 100 nM in the methods) not printed on the sheet).
T2 construct: also called FcγRIIIaF158; not shown: HPC4 tag
T2 sequence (P08637 17-208): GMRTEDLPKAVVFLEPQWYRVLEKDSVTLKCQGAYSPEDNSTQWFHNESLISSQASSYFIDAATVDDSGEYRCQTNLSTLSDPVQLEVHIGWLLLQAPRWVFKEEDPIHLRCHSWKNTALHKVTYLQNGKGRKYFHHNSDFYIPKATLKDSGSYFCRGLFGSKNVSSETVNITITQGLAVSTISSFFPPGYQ
B1: binds.
B2: binds.
B3: binds.

The binders below were run against T3, His-tagged CHIKV E2 SL15649 (Chikungunya virus strain SL15649, UniProt Q8JUX5 326-1220) (assay: SPR, His-tagged antigen captured).
T3 construct: also called CHIKV pE2-E1 antigen derived from CHIKV strain SL15649; pE2-E1 target
B2: binds.

These binders were tested against T4, His-tagged CHIKV E2 LR2006 (Chikungunya virus strain LR2006, UniProt Q8JUX5 326-1220) (assay: SPR, His-tagged antigen captured).
T4 construct: also called CHIKV pE2-E1 antigen derived from CHIKV strain LR2006; pE2-E1 target
B2: binds.

The binders below were run against T1, recombinant mouse FcRn (assay: SPR (Biacore T200), mouse FcRn immobilised on CM5 chip).
With B1 the Kd was 22 nM.
B2 showed a Kd of 1.2 nM.
B3 showed a Kd of 20 nM.

These binders were tested against T5, recombinant human FcRn (human, UniProt P55899 24-297; P61769 21-119) (assay: SPR, human FcRn immobilised; relative to mAb2).
T5 construct: also called human FcRn receptor
T5 sequence (P55899 24-297 limits assumed, chain 1 of 2): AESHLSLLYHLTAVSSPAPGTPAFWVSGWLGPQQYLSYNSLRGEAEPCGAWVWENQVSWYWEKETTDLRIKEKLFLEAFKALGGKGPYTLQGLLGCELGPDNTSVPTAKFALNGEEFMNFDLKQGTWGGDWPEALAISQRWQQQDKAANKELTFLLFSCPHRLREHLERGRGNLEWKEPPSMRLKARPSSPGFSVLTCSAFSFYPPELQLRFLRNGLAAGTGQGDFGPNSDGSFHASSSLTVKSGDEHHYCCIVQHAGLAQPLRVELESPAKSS
T5 sequence (P61769 21-119 limits assumed, chain 2 of 2): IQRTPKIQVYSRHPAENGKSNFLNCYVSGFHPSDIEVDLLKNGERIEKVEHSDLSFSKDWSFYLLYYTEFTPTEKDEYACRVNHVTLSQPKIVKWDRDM
In the case of B1, the “Affinity Increase (fold)” value is reported as 1 fold.
With B2 the “Affinity Increase (fold)” value was 14.1 fold.
B3 was tested, and the “Affinity Increase (fold)” value was 1.1 fold.

These binders were tested against T5, recombinant human FcRn (assay: SPR, human FcRn immobilised; relative to mAb1).
For B4, the “Affinity Increase (fold)” value was 7.7 fold.
For B5, the “Affinity Increase (fold)” value was 13 fold.
B6 was tested, and the “Affinity Increase (fold)” value was 16.3 fold.
For B7, the “Affinity Increase (fold)” value was 11.3 fold.

These binders were tested against T1, recombinant mouse FcRn (assay: SPR, mouse FcRn immobilised; relative to mAb1).
In the case of B4, the “Affinity Increase (fold)” value is reported as 2.1 fold.
With B5 the “Affinity Increase (fold)” value was 3.3 fold.
For B6, the “Affinity Increase (fold)” value was 10.4 fold.
In the case of B7, the “Affinity Increase (fold)” value is reported as 2.3 fold.

The binders below were run against T1, recombinant mouse FcRn (assay: SPR, mouse FcRn immobilised; relative to mAb2).
In the case of B1, the “Affinity Increase (fold)” value is reported as 1 fold.
In the case of B2, the “Affinity Increase (fold)” value is reported as 19.5 fold.
With B3 the “Affinity Increase (fold)” value was 1.1 fold.

Biological target: T2, Recombinant human HPC4-tagged …
Assay: SPR (Biacore 3000), HPC4-tagged FcγRIII-F158 captured on anti-HPC4 CM5 chip, antibody injected 2 min, in duplicate; concentration (900, 300 or 100 nM in the methods) not printed on the sheet
Remark: another data set of the same source
B4: binds.
B5: binds.
B6: binds.
B7: binds.

These binders were tested against T5, recombinant human FcRn (assay: SPR (Biacore T200), human FcRn immobilised on CM5 chip).
For B1, the Kd was 328 nM.
B2 showed a Kd of 23 nM.
B3 gave a Kd of 301 nM.

Biological target: T1, recombinant mouse FcRn
Assay: SPR (Biacore T200), mouse FcRn immobilised on CM5 chip
Remark: another data set of the same source
Binder B4 has a Kd of 9.3 nM.
In the case of B5, the Kd is reported as 5.9 nM.
B6 was tested, and the Kd was 1.9 nM.
In the case of B7, the Kd is reported as 8.4 nM.

These binders were tested against T6, Recombinant human HPC4-tagged FcγRIIIa-V158 (human, UniProt P08637 17-208) (assay: SPR (Biacore 3000), HPC4-tagged FcγRIIIa-V158 captured on anti-HPC4 CM5 chip, antibody injected 2 min, in duplicate; concentration (900, 300 or 100 nM in the methods) not printed on the sheet).
T6 construct: Valine at 158 is a polymorphism, named without an old residue; also called Val158; not shown: HPC4 tag
T6 sequence (P08637 17-208 F176V): as the sequence (P08637 17-208) above, with F160V counted along it
B1: binds.
B2: binds.
B3: binds.

Biological target: T5, recombinant human FcRn
Assay: SPR (Biacore T200), human FcRn immobilised on CM5 chip
Remark: another data set of the same source
B4 showed a Kd of 45 nM.
B5 was tested, and the Kd was 27 nM.
Binder B6 has a Kd of 21 nM.
With B7 the Kd was 31 nM.

The binders below were run against T4, His-tagged CHIKV E2 LR2006 (assay: not given).
B1: binds.
B8: no binding.
B9: binds.
B3: binds.
B10: no binding.
B11: no binding.
B12: binds.

Biological target: T6, Recombinant human HPC4-tagged …
Assay: SPR (Biacore 3000), HPC4-tagged FcγRIIIa-V158 captured on anti-HPC4 CM5 chip, antibody injected 2 min, in duplicate; concentration (900, 300 or 100 nM in the methods) not printed on the sheet
Remark: another data set of the same source
B4: binds.
B5: binds.
B6: binds.
B7: binds.

Each binder was assayed against Antigen (E2) (Chikungunya virus) (assay: SPR (Biacore T200), His-tagged antigen captured by anti-His antibody, 1:1 model).
B1 was tested, and the Kd was 0.13 nM.
B9 was tested, and the Kd was 0.94 nM.
B3 gave a Kd of 0.22 nM.
In the case of B12, the Kd is reported as 0.5 nM.

Source: patent publication US20180127487A1 (Sanofi, published 2018)
